Experiment [1] addresses α-syn NAC (α-syn 57–102) (human) (UniProt P37840).
Experiment [2] has as its target α-syn ΔC (α-synuclein A53T deletion mutant lacking most of the C-terminal part) (human).
For experiment [3], the target named is α-synuclein A53T amyloid fibres (human) (UniProt P37840). As to the kind of experiment: co-sedimentation; purified fibres (3.5 μM at monomer concentration) with 0.7 μM CCT or GroEL in 25 mM Tris pH 7.4, 5 mM MgCl2, 150 mM NaCl, 10% glycerol, 30 min, room temperature; 141,000 xg, 60 min, 4 °C; pellet and supernatant on SDS-PAGE, Coomassie, ImageJ.

This note sets out measurements from PMC5244355.

Chain of chaperonin CCT (chaperonin containing TCP-1), bovine testis (Q3MHL7 whole entry, looked up): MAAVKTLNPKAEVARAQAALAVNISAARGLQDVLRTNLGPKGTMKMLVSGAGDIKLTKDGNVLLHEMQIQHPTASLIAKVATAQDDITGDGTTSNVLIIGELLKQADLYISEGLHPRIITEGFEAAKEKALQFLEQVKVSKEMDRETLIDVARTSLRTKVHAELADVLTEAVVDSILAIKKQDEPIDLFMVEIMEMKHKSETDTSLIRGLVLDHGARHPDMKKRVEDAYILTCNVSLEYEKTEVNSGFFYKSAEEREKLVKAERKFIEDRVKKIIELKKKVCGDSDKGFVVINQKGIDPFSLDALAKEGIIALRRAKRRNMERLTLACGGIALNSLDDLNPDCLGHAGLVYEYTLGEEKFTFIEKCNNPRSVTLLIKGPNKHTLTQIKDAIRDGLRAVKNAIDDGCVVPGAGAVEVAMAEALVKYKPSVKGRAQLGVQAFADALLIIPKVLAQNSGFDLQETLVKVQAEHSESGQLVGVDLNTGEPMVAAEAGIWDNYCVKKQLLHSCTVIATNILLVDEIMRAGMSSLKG
Chain of chaperonin CCT (chaperonin containing TCP-1), bovine testis (Q3T0K2 whole entry, looked up): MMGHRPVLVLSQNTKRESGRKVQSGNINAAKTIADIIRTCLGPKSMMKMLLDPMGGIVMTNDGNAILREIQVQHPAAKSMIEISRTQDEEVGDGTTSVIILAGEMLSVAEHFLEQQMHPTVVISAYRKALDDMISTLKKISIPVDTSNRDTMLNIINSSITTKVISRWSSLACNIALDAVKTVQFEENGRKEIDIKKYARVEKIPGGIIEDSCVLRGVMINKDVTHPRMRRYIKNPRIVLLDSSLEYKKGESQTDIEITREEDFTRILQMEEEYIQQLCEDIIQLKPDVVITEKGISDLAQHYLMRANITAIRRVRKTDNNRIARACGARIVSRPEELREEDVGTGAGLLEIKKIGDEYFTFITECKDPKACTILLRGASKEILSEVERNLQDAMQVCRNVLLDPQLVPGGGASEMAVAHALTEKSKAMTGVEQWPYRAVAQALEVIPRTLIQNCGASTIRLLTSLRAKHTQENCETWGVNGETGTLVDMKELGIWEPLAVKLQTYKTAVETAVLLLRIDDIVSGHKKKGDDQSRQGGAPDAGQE
Chain of chaperonin CCT (chaperonin containing TCP-1), bovine testis (Q3ZBH0 whole entry, looked up): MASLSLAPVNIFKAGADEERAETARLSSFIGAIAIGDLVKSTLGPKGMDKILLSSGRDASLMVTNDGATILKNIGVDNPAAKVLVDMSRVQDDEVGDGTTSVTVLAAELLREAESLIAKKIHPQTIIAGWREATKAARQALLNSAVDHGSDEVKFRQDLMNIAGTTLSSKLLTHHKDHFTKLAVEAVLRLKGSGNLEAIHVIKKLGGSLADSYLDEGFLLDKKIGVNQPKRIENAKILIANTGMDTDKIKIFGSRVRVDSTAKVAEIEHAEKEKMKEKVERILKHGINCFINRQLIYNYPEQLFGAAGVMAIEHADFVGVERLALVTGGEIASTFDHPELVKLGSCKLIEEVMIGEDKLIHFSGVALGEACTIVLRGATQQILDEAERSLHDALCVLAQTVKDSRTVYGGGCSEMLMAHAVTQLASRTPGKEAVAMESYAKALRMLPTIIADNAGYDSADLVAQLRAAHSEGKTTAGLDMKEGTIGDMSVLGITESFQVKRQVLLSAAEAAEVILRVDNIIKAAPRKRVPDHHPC
Chain of chaperonin CCT (chaperonin containing TCP-1), bovine testis (Q32L40 whole entry, looked up): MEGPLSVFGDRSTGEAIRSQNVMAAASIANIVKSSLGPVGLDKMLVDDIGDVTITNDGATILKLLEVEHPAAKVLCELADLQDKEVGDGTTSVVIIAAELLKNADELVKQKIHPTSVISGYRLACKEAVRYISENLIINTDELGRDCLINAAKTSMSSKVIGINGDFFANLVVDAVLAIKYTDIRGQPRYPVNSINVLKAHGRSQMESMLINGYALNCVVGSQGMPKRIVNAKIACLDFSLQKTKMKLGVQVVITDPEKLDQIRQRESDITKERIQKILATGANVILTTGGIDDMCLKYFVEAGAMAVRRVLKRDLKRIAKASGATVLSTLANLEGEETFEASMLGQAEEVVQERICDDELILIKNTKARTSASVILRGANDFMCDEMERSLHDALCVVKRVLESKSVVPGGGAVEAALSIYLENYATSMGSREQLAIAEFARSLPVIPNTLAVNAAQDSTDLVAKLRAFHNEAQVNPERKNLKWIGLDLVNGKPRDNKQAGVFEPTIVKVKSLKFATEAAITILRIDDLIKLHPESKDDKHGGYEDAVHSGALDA

Take “chaperonin CCT (chaperonin containing TCP-1), bovine testis (from UniProt Q32L40 1-556; Q3ZBH0 1-535; Q3T0K2 1-545; Q3MHL7 1-531) (complex)”: the percentage of α-syn NAC fibres (ThT fluorescence) with ADP and CCT at a molar ratio of 1:50 CCT:deletion mutant in experiment [1] is 38%. For the same substance, the percentage of α-syn ΔC fibres (ThT fluorescence) with ADP and CCT: 33% at a molar ratio of 1:10, 58% at 1:50 in experiment [2] turned out to be 58%. For the substance “chaperonin CCT (chaperonin containing TCP-1), bovine testis, Q32L40 1-556; Q3ZBH0 1-535; Q3T0K2 1-545; Q3MHL7 1-531”, in experiment [3], the percent of CCT cosedimented with fibres was under 60%.
